T1: mouse CD137 ligand on DO11.10 cells (mouse, UniProt P41274 1-309)
T1 construct: whole, on cells
T1 sequence (looked up): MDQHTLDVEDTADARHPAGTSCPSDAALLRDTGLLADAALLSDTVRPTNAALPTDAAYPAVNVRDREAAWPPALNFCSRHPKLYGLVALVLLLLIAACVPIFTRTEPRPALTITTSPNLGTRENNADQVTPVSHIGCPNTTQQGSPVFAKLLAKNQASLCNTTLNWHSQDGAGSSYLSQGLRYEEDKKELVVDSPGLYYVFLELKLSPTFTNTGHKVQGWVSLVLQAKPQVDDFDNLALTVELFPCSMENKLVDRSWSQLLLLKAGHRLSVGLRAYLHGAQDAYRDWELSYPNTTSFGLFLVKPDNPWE

T2: human OX40 (human, UniProt P43489 29-216)
T2 sequence (looked up): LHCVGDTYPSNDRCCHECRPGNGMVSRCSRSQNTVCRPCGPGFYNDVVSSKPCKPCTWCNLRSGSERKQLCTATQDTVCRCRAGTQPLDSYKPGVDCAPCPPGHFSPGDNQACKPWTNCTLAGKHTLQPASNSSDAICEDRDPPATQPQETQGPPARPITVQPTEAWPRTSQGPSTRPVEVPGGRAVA

T3: human GITR (human, UniProt Q9Y5U5 26-161, limits assumed)
T3 sequence (looked up): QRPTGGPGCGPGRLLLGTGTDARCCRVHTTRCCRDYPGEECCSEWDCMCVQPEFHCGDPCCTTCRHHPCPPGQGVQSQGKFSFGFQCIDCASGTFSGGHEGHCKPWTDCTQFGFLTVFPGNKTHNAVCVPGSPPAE

T4: cCD137-mFc-Avi (cynomolgus; mouse)
T4 construct: also called cynomolgus CD137-mFc-Avi; Cyno CD137-mFc-Avi; not shown: mouse IgG2a Fc domain (mIgG2a Fc)
T4 chain: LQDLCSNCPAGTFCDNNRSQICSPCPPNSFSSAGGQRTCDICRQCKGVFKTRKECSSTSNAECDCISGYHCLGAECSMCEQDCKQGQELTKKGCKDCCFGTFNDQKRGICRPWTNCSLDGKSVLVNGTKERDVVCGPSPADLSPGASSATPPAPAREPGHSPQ

B1: mCD137-mFc-Avi (Fc fusion)
chain: VQNSCDNCQPGTFCRKYNPVCKSCPPSTFSSIGGQPNCNICRVCAGYFRFKKFCSSTHNAECECIEGFHCLGPQCTRCEKDCRPGQELTKQGCKTCSLGTFNDQNGTGVCRPWTNCSLDGRSVLKTGTTEKDVVCGPPVVSFSPSTTISVTPEGGPGGHSLQVL
notes: also called mouse CD137-mFc-Avi; mouse dimeric CD137; not shown: mouse IgG2a Fc domain (mIgG2a Fc)

What was measured:
[1] = target: T1, mouse CD137 ligand on DO11.10 cells; experiment: flow cytometry, anti mouse Fc detection
Protocol: In more detail, materials from the same production lot were mixed together and analysed for stability and purity by size-exclusion high-performance liquid chromatography (SE-HPLC), SDS polyacrylamide gel electrophoresis (SDS-PAGE), and size-exclusion chromatography with multi-angle light scattering (SEC-MALS). […] Cells were incubated with the CD137 antigens for 1 hour, and then a fluorescently-labelled anti mouse Fc fragment antibody was used to detect cell binding.

[2] = target: mouse CD137, cell-surface (mouse, UniProt P20334 24-256); experiment: cell-based or functional assay
[3] = target: T2, human OX40; experiment: SPR, receptor amine-coupled to CM5 (~1000 RU)
[4] = target: human CD40 (human, UniProt P25942 21-193, limits assumed); experiment: SPR, receptor amine-coupled to CM5 (~1000 RU)
[5] = target: T3, human GITR; experiment: SPR, receptor amine-coupled to CM5 (~1000 RU)
[6] = target: T5, hCD137-mFc-Avi (human; mouse, UniProt Q07011 24-186, biotin on the Avi sequence where the biotinylated form was used); experiment: SPR, mAb^2 captured by anti-human Fab, antigen in flow, 1:1 Langmuir fit
T5 construct: also called human CD137-mFc-Avi; dimeric human CD137; not shown: mouse IgG2a Fc domain (mIgG2a Fc)
Protocol: (§1) An anti-human Fab capture antibody was immobilised on all four flow cells of a CM5 series S chip (GE Healthcare #BR-1005-30) to an average surface density of 6000 RU following the manufacturer's recommendations (GE Healthcare, human Fab capture Kit, #28958325). […] Each mAb² was captured to approximately 150 RU by injecting a 3 μg/ml solution of mAb² diluted in HBS-EP+ buffer (GE Healthcare #BR1006-69) for 60 seconds at 30 μl/min. Then different concentrations of human, cyno or mouse CD137 antigen (unbiotinylated human, cyno or mouse CD137-mFc-Avi or human CD137-Avi-His) in HBS-EP+ buffer were flowed over the chip for 3 min at 60 μl/min and then allowed to dissociate for 10 minutes. After each antigen concentration the chip was regenerated by infecting 10 mM glycine pH 2.1 at a flow rate of 30 μl/min for 30 seconds. Buffer HBS-EP+ was injected before the highest concentration of antigen and after the lowest concentration of antigen for reference subtraction, and one of the concentrations at random was repeated twice. The binding kinetics were fit with a 1:1 Langmuir model to generate equilibrium binding constants (KD) for each sample. Data analysis was performed with BiaEvaluation software version 3.2.

[7] = target: T6, hCD137-Avi-His (human, UniProt Q07011 24-186); experiment: as above
T6 construct: also called human CD137-Avi-His; monomeric human CD137
Protocol: as §1

[8] = target: T4, cCD137-mFc-Avi; experiment: as above
Protocol: as §1

[9] = target: B1; experiment: as above
Protocol: as §1

[10] = target: B1; experiment: SPR (Biacore T200)

T6 sequence (Q07011 24-186): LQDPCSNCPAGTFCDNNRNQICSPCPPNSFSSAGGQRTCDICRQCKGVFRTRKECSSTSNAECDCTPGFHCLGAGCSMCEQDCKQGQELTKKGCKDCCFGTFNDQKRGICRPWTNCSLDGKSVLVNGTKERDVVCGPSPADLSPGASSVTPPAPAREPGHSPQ
T5 sequence (Q07011 24-186): as above
Sequence of human CD40 (P25942 21-193 limits assumed): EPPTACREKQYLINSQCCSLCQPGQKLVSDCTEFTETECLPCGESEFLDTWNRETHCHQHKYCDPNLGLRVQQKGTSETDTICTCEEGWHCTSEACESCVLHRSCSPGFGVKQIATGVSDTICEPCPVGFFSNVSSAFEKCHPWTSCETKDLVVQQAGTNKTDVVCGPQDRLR

binding result [1]	+XL EC50 (nM), mouse CD137 DO11.10 T cell activation assay [2]	+XL Emax (IL-2 pg/ml), mouse CD137 DO11.10 T cell activation assay [2]	binding result [3]	binding result [4]	binding result [5]	Kd [6]	Human monomeric CD137 KD fold difference relative to human dimeric KD [7]	Kd [8]	Kd [9]	fold decrease in binding strength against FS22-053-014 [10]	Binder
binds											B1
	2.04 nM	28100 pg/mL	no binding (tested: 1 µM)	no binding (tested: 1 µM)	no binding (tested: 1 µM)	3.2 nM	100 fold	0.9 nM	24 nM		FS22-053-014/HeID1.3 (bispecific antibody, human IgG1, kappa, mock mAb^2; also called FS22-053-014 (mock mAb^2 format); FS22-053-14) heavy: QVQLQESGPGLVRPSQTLSLTCTVSGSTFSGYGVNWVRQPPGRGLEWIGMIWGDGNTDYNSALKSRVTMLVDTSKNQFSLRLSSVTAADTAVYYCARERDYRLDYWGQGSLVTVSSASTKGPSVFPLAPSSKSTSGGTAALGCLVKDYFPEPVTVSWNSGALTSGVHTFPAVLQSSGLYSLSSVVTVPSSSLGTQTYICNVNHKPSNTKVDKKVEPKSCDKTHTCPPCPAPELLGGPSVFLFPPKPKDTLMISRTPEVTCVVVDVSHEDPEVKFNWYVDGVEVHNAKTKPREEQYNSTYRVVSVLTVLHQDWLNGKEYKCKVSNKALPAPIEKTISKAKGQPREPQVYTLPPSRDELNPPYLFSNQVSLTCLVKGFYPSDIAVEWESNGQPENNYKTTPPVLDSDGSFFLYSKLTVYHWRWLDGNVFSCSVMHEALHNHYTQKSLSLSPG light: DIQMTQSPASLSASVGETVTITCRASGNIHNYLAWYQQKQGKSPQLLVYNAKTLADGVPSRFSGSGSGTQYSLKINSLQPEDFGSYYCQHFWSTPRTFGGGTKLEIKRTVAAPSVFIFPPSDEQLKSGTASVVCLLNNFYPREAKVQWKVDNALQSGNSQESVTEQDSKDSTYSLSSTLTLSKADYEKHKVYACEVTHQGLSSPVTKSFNRGEC
	16.7 nM	41000 pg/mL								2 fold	FS22-053-017 in HeID1.3 mock mAb^2 format (bispecific antibody, FS22-053-014 with D98E (IMGT, CH3); range 1-339 derived by counting; also called FS22-053-17) heavy: QVQLQESGPGLVRPSQTLSLTCTVSGSTFSGYGVNWVRQPPGRGLEWIGMIWGDGNTDYNSALKSRVTMLVDTSKNQFSLRLSSVTAADTAVYYCARERDYRLDYWGQGSLVTVSSASTKGPSVFPLAPSSKSTSGGTAALGCLVKDYFPEPVTVSWNSGALTSGVHTFPAVLQSSGLYSLSSVVTVPSSSLGTQTYICNVNHKPSNTKVDKKVEPKSCDKTHTCPPCPAPELLGGPSVFLFPPKPKDTLMISRTPEVTCVVVDVSHEDPEVKFNWYVDGVEVHNAKTKPREEQYNSTYRVVSVLTVLHQDWLNGKEYKCKVSNKALPAPIEKTISKAKGQPREPQVYTLPPSRDELNPPYLFSNQVSLTCLVKGFYPSDIAVEWESNGQPENNYKTTPPVLDSDGSFFLYSKLTVYHWRWLEGNVFSCSVMHEALHNHYTQKSLSLSPG light: DIQMTQSPASLSASVGETVTITCRASGNIHNYLAWYQQKQGKSPQLLVYNAKTLADGVPSRFSGSGSGTQYSLKINSLQPEDFGSYYCQHFWSTPRTFGGGTKLEIKRTVAAPSVFIFPPSDEQLKSGTASVVCLLNNFYPREAKVQWKVDNALQSGNSQESVTEQDSKDSTYSLSSTLTLSKADYEKHKVYACEVTHQGLSSPVTKSFNRGEC
